B1: RR1234L (peptide)
coil peptide: KGGGLEIRAAFLRRRNTALRTRVAELRQRVQRLRNIVSQYETRYGPL
notes: also called RR1234L (pI=12.4); basic coil peptide

Key:
[1] = homodimer, circular dichroism thermal denaturation; unit inferred
[2] = biological target: the molecule itself; assay: homodimer, circular dichroism thermal denaturation; unit not given
[3] = biological target: B1; assay: heterodimer, circular dichroism thermal denaturation; unit inferred

| Protein | Tm [1] [°C] | ΔG [2] | ΔH [2] | Tm [3] [°C] |
| --- | --- | --- | --- | --- |
| LEIEAAFLEQENTALETEVAELEQEVQRLENIVSQYETRYGPLGGGK (also called EE1234L (pI=3.7); acidic coil peptide) [EE1234L] | 28 | -6.2 | -45 | > 90 |
| B1 | 44 | -9.4 | -66 | – |

From US20120040900A1 (BRIGHAM AND WOMEN S HOSPITAL, published 2012)
